T1: human complement protein C1s (human, UniProt P09871 16-688)
T1 construct: Purified protein, bought; coated on ELISA plates, amine-coupled to a CM5 chip, or native in human serum (immunoprecipitation); also called human complement serine protease
T1 sequence (looked up): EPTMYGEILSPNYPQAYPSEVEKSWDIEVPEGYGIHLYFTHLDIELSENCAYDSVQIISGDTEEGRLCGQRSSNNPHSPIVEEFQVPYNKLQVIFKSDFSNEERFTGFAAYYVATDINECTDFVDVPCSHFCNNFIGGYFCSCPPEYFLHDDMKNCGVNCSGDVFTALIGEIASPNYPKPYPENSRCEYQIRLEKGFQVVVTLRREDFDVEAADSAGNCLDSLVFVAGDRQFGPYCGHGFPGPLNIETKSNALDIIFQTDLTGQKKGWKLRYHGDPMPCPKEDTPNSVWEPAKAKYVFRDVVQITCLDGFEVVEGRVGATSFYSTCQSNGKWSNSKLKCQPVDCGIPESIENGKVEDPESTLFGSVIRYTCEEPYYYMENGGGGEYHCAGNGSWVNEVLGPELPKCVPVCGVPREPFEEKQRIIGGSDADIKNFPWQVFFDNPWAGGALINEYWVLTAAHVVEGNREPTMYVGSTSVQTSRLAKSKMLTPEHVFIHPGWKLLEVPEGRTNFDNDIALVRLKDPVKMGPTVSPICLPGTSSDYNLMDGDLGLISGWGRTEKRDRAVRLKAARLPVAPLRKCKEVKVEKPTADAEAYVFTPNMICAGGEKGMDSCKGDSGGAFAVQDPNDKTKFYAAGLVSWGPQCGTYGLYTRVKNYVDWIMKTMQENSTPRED

T2: human B cell regulator of IgH transcription (BRIGHT) (human, UniProt Q99856 1-593, limits assumed)
T2 construct: Recombinant, made in bacteria
T2 sequence (looked up): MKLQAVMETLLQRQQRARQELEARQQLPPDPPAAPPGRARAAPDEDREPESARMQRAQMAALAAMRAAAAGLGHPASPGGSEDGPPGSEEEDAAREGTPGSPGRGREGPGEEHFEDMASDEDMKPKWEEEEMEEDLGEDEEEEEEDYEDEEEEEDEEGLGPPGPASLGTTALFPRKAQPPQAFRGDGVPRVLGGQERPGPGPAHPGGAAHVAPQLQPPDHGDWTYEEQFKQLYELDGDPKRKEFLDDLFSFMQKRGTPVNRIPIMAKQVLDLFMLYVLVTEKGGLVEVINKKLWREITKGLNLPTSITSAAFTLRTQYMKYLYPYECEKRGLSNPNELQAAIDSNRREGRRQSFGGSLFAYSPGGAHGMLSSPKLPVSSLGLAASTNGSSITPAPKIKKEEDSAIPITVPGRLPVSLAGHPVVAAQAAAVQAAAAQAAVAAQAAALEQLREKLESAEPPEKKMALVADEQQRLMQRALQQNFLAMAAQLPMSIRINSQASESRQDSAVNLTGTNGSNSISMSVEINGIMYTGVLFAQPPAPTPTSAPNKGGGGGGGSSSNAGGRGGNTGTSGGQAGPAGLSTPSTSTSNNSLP


Tests used:
[1] = molecular target: T1, human complement protein C1s; assay: ELISA, E. coli whole cell lysate with scFv from combinatorial library
[2] = molecular target: T1, human complement protein C1s; assay: ELISA, antigen-coated plate, titration of purified IgG, anti-human Fc-HRP
Procedure: (§1) Purified IgGs were added to the plate at various concentrations for 1.5 h and washed with PBS/0.05% Tween-20. A polyclonal antibody of goat anti-human Fc region conjugated HRP was used for detection and developed with TMB substrate and stopped with 2N H₂SO₄. The absorbance was measured at 450 nm with a 96 well spectrophotometer. A titration curve of purified IgGs was used to determine an approximate IC50 for binding (Table 8).

[3] = molecular target: T2, human B cell regulator of IgH …; assay: as above
Procedure: as §1

[4] = molecular target: T1, human complement protein C1s; assay: SPR (BIAcore 3000), C1s amine-coupled to CM5 chip, antibody injected, bivalent model
Procedure: FIGS. 13A-13B. Kinetic binding analysis of purified anti-C1s IgGs by Surface Plasmon Resonance (Biacore). (FIG. 13A) Anti-C1s 2.1L-2.1HB was injected onto a chip with immobilized C1s at 25 nM, 50 nM, 100 nM or 200 nM and (FIG. 13B) As above for anti-C1s 2.3L-2.2H injected at 2.625 nM, 5.25 nM, 10.5 nM or 21 nM.
(§2) Surface Plasmon Resonance (Biacore) C1s was covalently immobilized on a CM5 chip (GE healthcare, NJ) at a level of approximately 200 response units via standard amine coupling chemistry as described in the manufacturer's protocol. BSA was similarly coupled for baseline correction. All kinetic analyses were performed at 25° C. in HBS-EP (10 mM HEPES, 150 mM NaCl, 50 μM EDTA, 0.005% P-20, pH 7.4) on a BIAcore 3000 (GE healthcare, NJ). Antibodies were injected over immobilized antigen at a flow rate of 50 μl/min or 100 μl/min and the chip was regenerated with a single 10s injection of 20 mM NaOH. Each sensogram was run in duplicate. Kinetic and equilibrium constants were determined by global fitting to a bivalent model using BIAevaluation software (GE healthcare, NJ).

[5] = molecular target: T1, human complement protein C1s; assay: SPR (Biacore), IgG on immobilized C1s
Source text: Antibodies were recombinantly expressed and purified as monomeric scFv fragments in E. coli and as full-length IgG antibodies in HEK 293F cells. […] Furthermore, the antibodies were suitable for functional assays, such as sandwich ELISA and immunoprecipitation of C1s from human serum (FIGS. 14-15).
as §2

| Binder | ELISA Signal (OD450 on antigen-coated wells relative to BSA-coated wells) [1] [fold over BSA wells] | EC50 (half-maximal binding) [2] [nM] | also measured |
| --- | --- | --- | --- |
| anti-C1s scFv 2.3L-2.2H (scFv, scFv in E. coli whole cell lysate; also called C1s-2 3L-2H) scFv: DIVMTQSPLTLTVTIGQPASISCKSSQSLLDSDGKTYLNWLLQRPGQSPKRLIYLVSKLDSGVPDRFTGSGSGTEFTLKTSRVEAEDLGVYYCWQGTHFPHFGGGTKLEIKGGGGSGGGGSGGGGSGGGGSEVKLVESGGGFVKPGGSLKLSCAASGFTFSTYGMSWVRQTPEKRLEWVASISAGGTTYYSDSVKGRFTISRDNARNILYLQMSSLRSEDTAMYYCARWLLLAYWGQGTLVTSSA | 4.22 |  |  |
| anti-C1s IgG 2.1L-2.1H (antibody, V domains shown, also called C1s 2.1L-2.1H) VH: QVQLQQSGAELARPGASVKMSCKASGYTFTSYTMHWVKQRPGQGLEWIGYINPSSGYTNYNQKFKDKATLTADKSSSTANMQLSSLTSEDSAVYYCARSDRYDGYFDYWGQGTTLTVSS VL: DVLMTQTPLSLPVSLGDQASISCRSSQSIVHSNGDTYLEWYLQKPGQSPKLLVYKLSNRFSGVPDRFSGSGSGTDFTLKISRVEAEDLGVYYCFQGSHVPLTFGAGTKLEIK |  | 50 |  |
| anti-BRIGHT IgG 1.2L-1.1H (antibody, V domains shown, Full-length IgG with human kappa and human IgG1 constant regions (pMAZ vectors, HEK293-F); also called BRIGHT 1.2L-1.1H) VH: EVKLVESGGDLVKPGGSLKLSCAASGFTFSSYGMSWVRQTPDKRLEWVATISSGGSYTYYPDSVKGRFTISRDNAKNTLYLQMSSLKSEDTAMYYCARHDYGNYVDYWGQGTTLTVSS VL: not shown |  |  | EC50 (half-maximal binding) [3]: 1000 nM |
| anti-C1s scFv 2.3L-2.3H (scFv, scFv in E. coli whole cell lysate; also called C1s-2 3L-3H) scFv: DIVMTQSPLTLTVTIGQPASISCKSSQSLLDSDGKTYLNWLLQRPGQSPKRLIYLVSKLDSGVPDRFTGSGSGTEFTLKTSRVEAEDLGVYYCWQGTHFPHFGGGTKLEIKGGGGSGGGGSGGGGSGGGGSQVQLQQSGTVLARPGASVKMSCKASGYTFTSYWMHWVKQRPGQGLEWIGAIYPGNSDTSYNQKFKGKAKLTAVTSTSTAYMELSSLTNEDSAVYYCTRSDGYYYFDYWGQGTTLTVSSA | 8.8 |  |  |
| anti-C1s IgG 2.2L-2.2H (antibody, V domains shown, Full-length IgG made in HEK 293F cells; also called C1s 2.2L with 2.2H) VH: EVKLVESGGGFVKPGGSLKLSCAASGFTFSTYGMSWVRQTPEKRLEWVASISAGGTTYYSDSVKGRFTISRDNARNILYLQMSSLRSEDTAMYYCARWLLLAYWGQGTLVTSSA VL: DIVMTQSPASLAVSLGQRATISCRASESVDSYGNSFMHWYQQKPGQPPKLLIYRASNLESGIPARFSGSGSRTDFTLTINPVEADDVTTYYCQQSNEDPWTFGGGTKLEIK |  |  | Kd [5]: ~500 nM |

Second part, led by results:

| ELISA Signal (OD450 on antigen-coated wells relative to BSA-coated wells) [1] [fold over BSA wells] | EC50 (half-maximal binding) [2] [nM] | Binder | also measured |
| --- | --- | --- | --- |
|  | 100 | anti-C1s IgG 2.3L-2.3H (antibody, V domains shown, Full-length IgG with human kappa and human IgG1 constant regions (pMAZ vectors, HEK293-F); also called C1s 2.3L-2.3H) VH: QVQLQQSGTVLARPGASVKMSCKASGYTFTSYWMHWVKQRPGQGLEWIGAIYPGNSDTSYNQKFKGKAKLTAVTSTSTAYMELSSLTNEDSAVYYCTRSDGYYYFDYWGQGTTLTVSS VL: not shown |  |
|  | 0.43 | anti-C1s IgG 2.3L-2.2H (antibody, V domains shown, Full-length IgG with human kappa and human IgG1 constant regions (pMAZ vectors, HEK293-F); also called C1s 2.3L-2.2H; 2.3L-2.2H (IgG)) VH: EVKLVESGGGFVKPGGSLKLSCAASGFTFSTYGMSWVRQTPEKRLEWVASISAGGTTYYSDSVKGRFTISRDNARNILYLQMSSLRSEDTAMYYCARWLLLAYWGQGTLVTSSA VL: not shown | Kd [4]: 0.43 nM; koff [4]: 0.00019 s⁻¹; kon [4]: 450000 M⁻¹ s⁻¹ |
| 3.1 |  | anti-C1s scFv 2.2L-2.2H (scFv, scFv in E. coli whole cell lysate; also called C1s-2 2L-2H) scFv: DIVMTQSPASLAVSLGQRATISCRASESVDSYGNSFMHWYQQKPGQPPKLLIYRASNLESGIPARFSGSGSRTDFTLTINPVEADDVTTYYCQQSNEDPWTFGGGTKLEIKGGGGSGGGGSGGGGSGGGGSEVKLVESGGGFVKPGGSLKLSCAASGFTFSTYGMSWVRQTPEKRLEWVASISAGGTTYYSDSVKGRFTISRDNARNILYLQMSSLRSEDTAMYYCARWLLLAYWGQGTLVTSSA |  |

Reference: patent publication US20110312505A1 (University of Texas, published 2011)
